Among the data in PMC9152131 are percentage of transfected N2a cells exhibiting rapalog-induced Hrs recruitment to the centrosome/centriole (transport assay with BicD2-GFP-FKBP, kinesin tail-FRB-Myc and linker AP21967) values, retold here.

This assay addresses RFP-Hrs (UniProt O14964).
Chain of UniProt O14964 (O14964 whole entry): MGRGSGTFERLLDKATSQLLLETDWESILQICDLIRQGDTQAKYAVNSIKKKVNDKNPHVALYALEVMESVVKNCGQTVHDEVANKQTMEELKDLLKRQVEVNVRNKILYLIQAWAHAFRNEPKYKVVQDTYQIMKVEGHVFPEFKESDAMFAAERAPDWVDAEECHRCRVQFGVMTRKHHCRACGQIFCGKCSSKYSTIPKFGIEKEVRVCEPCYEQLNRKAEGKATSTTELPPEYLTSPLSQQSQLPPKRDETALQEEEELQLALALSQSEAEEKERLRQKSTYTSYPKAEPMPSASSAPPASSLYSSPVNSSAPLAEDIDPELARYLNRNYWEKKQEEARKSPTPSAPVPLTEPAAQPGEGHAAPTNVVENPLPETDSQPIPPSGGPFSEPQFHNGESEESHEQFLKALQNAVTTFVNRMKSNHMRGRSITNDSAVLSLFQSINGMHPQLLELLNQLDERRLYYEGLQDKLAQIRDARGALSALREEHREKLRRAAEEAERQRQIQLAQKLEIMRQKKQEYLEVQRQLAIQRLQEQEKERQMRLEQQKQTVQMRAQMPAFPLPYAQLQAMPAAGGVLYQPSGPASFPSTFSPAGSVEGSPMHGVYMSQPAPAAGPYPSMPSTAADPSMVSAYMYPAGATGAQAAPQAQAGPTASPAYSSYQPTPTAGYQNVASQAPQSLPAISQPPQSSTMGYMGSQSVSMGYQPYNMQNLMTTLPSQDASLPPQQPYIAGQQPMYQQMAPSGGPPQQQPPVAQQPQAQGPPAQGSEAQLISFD

B1: KIF13B-FRB-Myc (pBa-FRB-3myc-KIF13B tail 442–1826) (domain or fragment)
chain: KVGDDKCFLVNLNADPALNELLVYYLKEHTLIGSANSQDIQLCGMGILPEHCIIDITSEGQVMLTPQKNTRTFVNGSSVSSPIQLHHGDRILWGNNHFFRLNLPKKKKKAEREDEDQDPSMKNENSSEQLDVDGDSSSEVSSEVNFNYEYAQMEVTMKALGSNDPMQSILNSLEQQHEEEKRSALERQRLMYEHELEQLRRRLSPEKQNCRSMDRFSFHSPSAQQRLRQWAEEREATLNNSLMRLREQIVKANLLVREANYIAEELDKRTEYKVTLQIPASSLDANRKRGSLLSEPAIQVRRKGKGKQIWSLEKLDNRLLDMRDLYQEWKECEEDNPVIRSYFKRADPFYDEQENHSLIGVANVFLESLFYDVKLQYAVPIINQKGEVAGRLHVEVMRLSGDVGERIAGGDEVAEVSFEKETQENKLVCMVKILQATGLPQHLSHFVFCKYSFWDQQEPVIVAPEVDTSSSSVSKEPHCMVVFDHCNEFSVNITEDFIEHLSEGALAIEVYGHKINDPRKNPALWDLGIIQAKTRSLRDRWSEVTRKLEFWVQILEQNENGEYCPVEVISAKDVPTGGIFQLRQGQSRRVQVEVKSVQESGTLPLMEECILSVGIGCVKVRPLRAPRTHETFHEEEEDMDSYQDRDLERLRRKWLNALTKRQEYLDQQLQKLVSKRDKTEDDADREAQLLEMRLTLTEERNAVMVPSAGSGIPGAPAEWTPVPGMETHIPVIFLDLNADDFSSQDNLDDPEAGGWDATLTGEEEEEFFELQIVKQHDGEVKAEASWDSAVHGCPQLSRGTPVDERLFLIVRVTVQLSHPADMQLVLRKRICVNVHGRQGFAQSLLKKMSHRSSIPGCGVTFEIVSNIPEDAQGVEEREALARMAANVENPASADSEAYIEKYLRSVLAVENLLTLDRLRQEVAVKEQLTGKGKLSRRSISSPNVNRLSGSRQDLIPSYSLGSNKGRWESQQDVSQTTVSRGIAPAPALSVSPQNNHSPDPGLSNLAASYLNPVKSFVPQMPKLLKSLFPVRDEKRGKRPSPLAHQPVPRIMVQSASPDIRVTRMEEAQPEMGPDVLVQTMGAPALKICDKPAKVPSPPPVIAVTAVTPAPEAQDGPPSPLSEASSGYFSHSVSTATLSDALGPGLDAAAPPGSMPTAPEAEPEAPISHPPPPTAVPAEEPPGPQQLVSPGRERPDLEAPAPGSPFRVRRVRASELRSFSRMLAGDPGCSPGAEGNAPAPGAGGQALASDSEEADEVPEWLREGEFVTVGAHKTGVVRYVGPADFQEGTWVGVELDLPSGKNDGSIGGKQYFRCNPGYGLLVRPSRVRRATGPVRRRSTGLRLGAPEARRSATLSGSATNLASLTAALAKADRSHKNPENRKSWAS
In turn, B1 yielded a percentage of transfected N2a cells exhibiting rapalog-induced Hrs recruitment to the centrosome/centriole (transport assay with BicD2-GFP-FKBP, kinesin tail-FRB-Myc and linker AP21967) of 13%.
